PMC11849073, “Specific recognition mechanism of an antibody to sulfated tyrosine and its potential use in biological research” (The Journal of Biological Chemistry, 2025)

How the values were obtained:
[1] = test system: sulfated N-terminal peptide of CCR5; assay: ITC analysis of BA8 Fab (wild type and mutants) with the sulfated peptide; assay type: binding; conditions: 10 μM Fab in cell, 100 μM sulfated peptide in syringe, PBS, 25 °C
Text: To determine the thermodynamic parameters accompanying the interaction, we performed an ITC analysis (Fig. 2B, Table 2).
To further dissect how molecular recognition occurs, we evaluated the contribution of individual residues of BA8 to the recognition of the sulfated peptide. We analyzed the crystal structure using the PDB PISA server, and we conducted mutation analyses in which the residues predicted to form hydrogen bonds or located at the interface were mutated to alanine (Fig. 3B).
The ITC experiments were performed using a MicroCal PEAQ-ITC (Malvern Panalytical, Malvern, UK). The BA8 Fab fragment antibody, sufficiently dialyzed in PBS, was adjusted to 10 μM for the cells, and the CCR5 N-terminal peptide, dissolved in the dialysate, was adjusted to 100 μM for the syringe. The first injection of 0.5 μl (omitted from the analysis) was followed by 19 injections of 2 μl with 120 s intervals at a constant temperature of 25 °C. The titration syringe was continuously stirred at 750 rpm.
The baselines were smoothly adjusted for the step after each titration saturated and fitted as one set of sites binding in MicroCal PEAQ-ITC Analysis Software (Malvern Panalytical, Malvern, UK).

[2] = DSF thermal stability of BA8 Fab and mutants; assay type: physicochemical
Procedure: To assess the effect of sulfated peptide binding on the thermal stability of BA8, we performed differential scanning fluorimetry (DSF) measurements (Fig. 2C) ([25]). The melting temperature (Tm) of BA8 forming a complex with the sulfated peptide was 75.6 °C, whereas the pre-binding Tm was 70.8 °C.
We evaluated the stabilizing effect of peptide binding on each mutant using DSF (Fig. S6).
The DSF thermal stability measurements were performed using a CFX Real-Time PCR System (Bio-Rad). First, 1 μl of 100 × SYPRO Orange stain was diluted with 19 μl of 8.3 μM unbound-BA8 Fab or the solution remaining in the cell after ITC measurement. Next, fluorescence was scanned every minute to obtain melting curves of the solutions as they were heated at 1.0 °C/min. The change in the scanned relative fluorescence unit per unit time was recorded, and the temperature at its peak was considered to be the melting temperature (Tm) ([42]).

[3] = test system: sulfated CCR5 on HEK293 cells transfected with CCR5 + TPST1 + TPST2 (C12); assay: Flow cytometry binding to C12 cells; assay type: cell-based; conditions: BA8 full-length IgG, median fluorescence intensity vs concentration, sigmoid fit, read-out: half-maximal binding concentration (BC50)
Text: We prepared model cells with transient overexpression to examine whether BA8 can recognize sulfated full-length CCR5. As referred in the Introduction section, previous research has shown that protein tyrosine sulfotransferases (TPSTs) are responsible for tyrosine sulfation ([10], [11], [12]). Those two isoforms of TPST (TPST1 and TPST2) and CCR5 genes were transiently transfected in the following five combinations to HEK293 cells: Negative Control (NC); CCR5 (C); CCR5 + TPST1 (C1); CCR5 + TPST2 (C2); and CCR5 + TPST1 + TPST2 (C12). Each protein contained the following tag sequences at the C-terminus: CCR5 – FLAG, TPST1 – HA, and TPST2 – Myc. The overexpression of each protein was confirmed by western blotting using tag antibodies (Fig. 5, A and B).
We conducted flow cytometry using these cells to confirm that BA8 can recognize sulfated CCR5 expressed on the cell surface (Fig. 5D).
To quantitatively evaluate the binding ability of BA8 to C2 and C12 cells, we plotted the median fluorescence intensity of antibody binding against BA8 concentration (Fig. 5E). An increase in the signal with increasing antibody concentration was confirmed, and the binding activity was quantitatively evaluated by fitting with a sigmoid function.
HEK293 cells stored in liquid nitrogen were initiated into the culture by thawing. […]

B1: BA8: rabbit antibody clone from phage display that specifically recognizes the sulfated N-terminal peptide of CCR5 (antibody, V domains shown)
VH: QSLEESGGGLFKPTDTLTLTCTVSGFSLSSYSIRWVRQAPGNGLEWIGAIGSGGNAYYTSWAKSRSTITRNTNENTVTLKMTSLTVADTATYFCARGGINFGIWGPGTLVTVSS
VL: AAVLTQTPSPVSAAVGSTVTINCQSSQSVYSKNWLSWFQQKPGQPPKQLIYSASTLDSGVPSRFSGSGSGTQFTLTISGVQCDDAATYYCQGTYGDASAFGGGTEVVVK
ΔH [1]: -28.7 kcal/mol
melting temperature (Tm), unbound (pre-binding) ([2]; SYPRO Orange, 8.3 μM unbound Fab, heated at 1.0 °C/min): 70.8 °C
melting temperature (Tm) of BA8 forming a complex with the sulfated peptide ([2]; SYPRO Orange, solution remaining in the cell after ITC measurement, 1.0 °C/min): 75.6 °C
increase of Tm after forming a complex with the sulfated peptide versus BA8 alone ([2]; complex from the ITC measurement): 4.8 °C
EC50 [3]: 3.71 nM
